Laboratory results as given in the supplement of paper PMC10567573.

B1: ESRRA (parent)
chain: LGVAQRSLPLQDELAFAEDLVLDE

Variants of: B1
Assay: protein stability index of a GFP-peptide fusion (GPS, HEK-293T) (PSI 1-6); higher = more stable
Details: c terminus: a fixed tail appended
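Further: lentivirally expressed fusions sorted by FACS into six bins by GFP to DsRed ratio, PSI derived from sequencing read proportions per bin multiplied by bin number.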

Variant	protein stability index
LGVAQRELPLQDELAFAEDLVLDE [S7E]	2.57
LGVALRSLPLQDELAFAEDLVLDE [Q5L]	2.07
LGVAPRSLPLQDELAFAEDLVLDE [Q5P]	3.39
LGVAERSLPLQDELAFAEDLVLDE [Q5E]	3.16
LGVAHRSLPLQDELAFAEDLVLDE [Q5H]	2.71
LGVAMRSLPLQDELAFAEDLVLDE [Q5M]	2.91
LGVAARSLPLQDELAFAEDLVLDE [Q5A]	2.51
LGVAIRSLPLQDELAFAEDLVLDE [Q5I]	2.17
LGVAKRSLPLQDELAFAEDLVLDE [Q5K]	2.39
LGVAFRSLPLQDELAFAEDLVLDE [Q5F]	1.87
LGVASRSLPLQDELAFAEDLVLDE [Q5S]	4.29
LGVATRSLPLQDELAFAEDLVLDE [Q5T]	2.39
LGVAGRSLPLQDELAFAEDLVLDE [Q5G]	2.26
LGVAYRSLPLQDELAFAEDLVLDE [Q5Y]	1.97
LGVANRSLPLQDELAFAEDLVLDE [Q5N]	2.63
LGVARRSLPLQDELAFAEDLVLDE [Q5R]	1.74
LGVAVRSLPLQDELAFAEDLVLDE [Q5V]	2.19
LGVACRSLPLQDELAFAEDLVLDE [Q5C]	1.76
LGVAWRSLPLQDELAFAEDLVLDE [Q5W]	2.07
LGVADRSLPLQDELAFAEDLVLDE [Q5D]	2.77
LGKAQRSLPLQDELAFAEDLVLDE [V3K]	2.39
LGNAQRSLPLQDELAFAEDLVLDE [V3N]	3.1
LGSAQRSLPLQDELAFAEDLVLDE [V3S]	2.64
LGDAQRSLPLQDELAFAEDLVLDE [V3D]	3.69

Variant	protein stability index
LGGAQRSLPLQDELAFAEDLVLDE [V3G]	3.15
LGAAQRSLPLQDELAFAEDLVLDE [V3A]	2.92
LGPAQRSLPLQDELAFAEDLVLDE [V3P]	2.73
LGYAQRSLPLQDELAFAEDLVLDE [V3Y]	2.16
LGRAQRSLPLQDELAFAEDLVLDE [V3R]	2.58
LGQAQRSLPLQDELAFAEDLVLDE [V3Q]	2.84
LGCAQRSLPLQDELAFAEDLVLDE [V3C]	2.86
LGEAQRSLPLQDELAFAEDLVLDE [V3E]	4.36
LGIAQRSLPLQDELAFAEDLVLDE [V3I]	2.21
LGFAQRSLPLQDELAFAEDLVLDE [V3F]	2.31
LGWAQRSLPLQDELAFAEDLVLDE [V3W]	2.82
LGMAQRSLPLQDELAFAEDLVLDE [V3M]	2.12
LGTAQRSLPLQDELAFAEDLVLDE [V3T]	2.92
LGLAQRSLPLQDELAFAEDLVLDE [V3L]	2.61
LGHAQRSLPLQDELAFAEDLVLDE [V3H]	2.76
HGVAQRSLPLQDELAFAEDLVLDE [L1H]	2.98
RGVAQRSLPLQDELAFAEDLVLDE [L1R]	2.18
SGVAQRSLPLQDELAFAEDLVLDE [L1S]	3.75
KGVAQRSLPLQDELAFAEDLVLDE [L1K]	2.34
QGVAQRSLPLQDELAFAEDLVLDE [L1Q]	3.21
PGVAQRSLPLQDELAFAEDLVLDE [L1P]	3.63
IGVAQRSLPLQDELAFAEDLVLDE [L1I]	2.2
DGVAQRSLPLQDELAFAEDLVLDE [L1D]	4.27
TGVAQRSLPLQDELAFAEDLVLDE [L1T]	3.5

Variant	protein stability index
EGVAQRSLPLQDELAFAEDLVLDE [L1E]	4.04
VGVAQRSLPLQDELAFAEDLVLDE [L1V]	2.8
AGVAQRSLPLQDELAFAEDLVLDE [L1A]	2.99
NGVAQRSLPLQDELAFAEDLVLDE [L1N]	2.58
WGVAQRSLPLQDELAFAEDLVLDE [L1W]	1.74
CGVAQRSLPLQDELAFAEDLVLDE [L1C]	2.57
MGVAQRSLPLQDELAFAEDLVLDE [L1M]	2.63
FGVAQRSLPLQDELAFAEDLVLDE [L1F]	2.81
GGVAQRSLPLQDELAFAEDLVLDE [L1G]	3.19
YGVAQRSLPLQDELAFAEDLVLDE [L1Y]	2.79
LGVAQRSLPGQDELAFAEDLVLDE [L10G]	5.43
LGVAQRSLPFQDELAFAEDLVLDE [L10F]	4.97
LGVAQRSLPDQDELAFAEDLVLDE [L10D]	5.42
LGVAQRSLPSQDELAFAEDLVLDE [L10S]	5.19
LGVAQRSLPVQDELAFAEDLVLDE [L10V]	4.64
LGVAQRSLPCQDELAFAEDLVLDE [L10C]	5.41
LGVAQRSLPQQDELAFAEDLVLDE [L10Q]	5.45
LGVAQRSLPEQDELAFAEDLVLDE [L10E]	4.36
LGVAQRSLPIQDELAFAEDLVLDE [L10I]	4.7
LGVAQRSLPAQDELAFAEDLVLDE [L10A]	5.58
LGVAQRSLPTQDELAFAEDLVLDE [L10T]	5.47
LGVAQRSLPNQDELAFAEDLVLDE [L10N]	5.12
LGVAQRSLPPQDELAFAEDLVLDE [L10P]	4.33
LGVAQRSLPMQDELAFAEDLVLDE [L10M]	3.54

Variant	protein stability index
LGVAQRSLPRQDELAFAEDLVLDE [L10R]	5.44
LGVAQRSLPKQDELAFAEDLVLDE [L10K]	5.21
LGVAQRSLPHQDELAFAEDLVLDE [L10H]	5.26
LGVAQESLPLQDELAFAEDLVLDE [R6E]	3.27
LGVAQMSLPLQDELAFAEDLVLDE [R6M]	2.35
LGVAQQSLPLQDELAFAEDLVLDE [R6Q]	3.81
LGVAQTSLPLQDELAFAEDLVLDE [R6T]	3.23
LGVAQISLPLQDELAFAEDLVLDE [R6I]	2.37
LGVAQGSLPLQDELAFAEDLVLDE [R6G]	2.56
LGVAQKSLPLQDELAFAEDLVLDE [R6K]	2.92
LGVAQFSLPLQDELAFAEDLVLDE [R6F]	2.26
LGVAQPSLPLQDELAFAEDLVLDE [R6P]	3.62
LGVAQVSLPLQDELAFAEDLVLDE [R6V]	3.09
LGVAQNSLPLQDELAFAEDLVLDE [R6N]	2.64
LGVAQSSLPLQDELAFAEDLVLDE [R6S]	2.98
LGVAQCSLPLQDELAFAEDLVLDE [R6C]	1.84
LGVAQWSLPLQDELAFAEDLVLDE [R6W]	2.17
LGVAQASLPLQDELAFAEDLVLDE [R6A]	3.14
LGVAQYSLPLQDELAFAEDLVLDE [R6Y]	2.16
LGVAQDSLPLQDELAFAEDLVLDE [R6D]	4.23
LGVAQHSLPLQDELAFAEDLVLDE [R6H]	2.55
LGVAQLSLPLQDELAFAEDLVLDE [R6L]	2.34
